Our source for the Kd values is the Immune Epitope Database (IEDB).

Assay [1] concerns the target HLA-A*01:01. The assay can be described thus: IEDB peptide-MHC binding, purified MHC/competitive/radioactivity; filed as Kd, often an IC50 or EC50 that approximates it; ≥ and ≤ were set here for values at or beyond the usual limits of such assays.
The target in assay [2] is HLA-A*24:02. Described as above.
Assay [3] deals with HLA-A*30:02. Described as above.
In assay [4] the target is HLA-A*26:01. Described as above.
Assay [5] deals with HLA-A*29:02. The description is as above.
Assay [6] concerns the target HLA-A*23:01. The assay is described as above.
Assay [7] deals with HLA-B*08:01. Described as above.
The target of assay [8] is HLA-B*58:01. The assay can be described thus: IEDB peptide-MHC binding, purified MHC/direct/fluorescence; filed as Kd, often an IC50 or EC50 that approximates it; ≥ and ≤ were set here for values at or beyond the usual limits of such assays. Conditions: source organism: Bacillus anthracis str. A0488.
The target in assay [9] is HLA-B*57:01. Described as above. The conditions noted are these: source organism: Bacillus anthracis str. A0488.
For assay [10], the target named is HLA-A*02:03. Nature of the assay: IEDB peptide-MHC binding, purified MHC/competitive/radioactivity; filed as Kd, often an IC50 or EC50 that approximates it; ≥ and ≤ were set here for values at or beyond the usual limits of such assays. The conditions noted are these: source organism: Dengue virus 4 Philippines/H241/1956.
The target of assay [11] is HLA-B*53:01. Described as above. The conditions noted are these: source organism: Dengue virus 3 Martinique/1243/1999.
Setting [12] is: source organism: Mammarenavirus lassaense.
[13] abbreviates: source organism: Vaccinia virus WR.
Setting [14] is: source organism: Mammarenavirus tacaribeense.
The mark [15] stands for this setting: source organism: Mammarenavirus guanaritoense.
The mark [16] stands for this setting: source organism: Mammarenavirus juninense.
Setting [17] is: source organism: SARS coronavirus Tor2.
Setting [18] is: source organism: Dengue virus 3 Martinique/1243/1999.
Setting [19] is: source organism: Vaccinia virus Copenhagen.
The mark [20] stands for this setting: source organism: Mammarenavirus machupoense.
The mark [21] stands for this setting: source organism: Dengue virus 2 Jamaica/1409/1983.
The mark [22] stands for this setting: source organism: Dengue virus 1 Brazil/97-11/1997.
The mark [23] stands for this setting: source organism: Mammarenavirus brazilense.
Setting [24] is: source organism: Dengue virus 4 Philippines/H241/1956.

By Kd is commonly meant the constant that tells how readily two partners part at equilibrium. Regarding CFISVNDRLV, the equilibrium dissociation constant (Kd) in [1] (setting [12]) was 18100 nM; in [2] (setting [12]), 11400 nM; in assay [3] (setting [12]), 573 nM; in [4] (setting [12]), not below 69700 nM; in assay [5] (setting [12]), 5260 nM; in assay [6] (setting [12]), 358 nM.
As to CPRRYLHRL, the dissociation constant Kd in assay [7] (setting [13]) is 2.66 nM.
As to CWFADKNLI, the values for the Kd in [2] (setting [14]), in assay [5] (setting [14]) and in [6] (setting [14]) were 510 nM, 3150 nM and 275 nM, respectively.
For CYSKSLRDLV, the Kd in [1] (setting [15]) is 12600 nM; in assay [2] (setting [15]) it was 529 nM; in [3] (setting [15]) it was not below 69700 nM; in [4] (setting [15]), not below 69700 nM; in assay [5] (setting [15]), not below 43000 nM; in [6] (setting [15]), 3070 nM.
For the sequence DWVVERVRWL, the values for the Kd in assay [2] (setting [16]), in assay [5] (setting [16]) and in [6] (setting [16]) were not below 48700 nM, not below 71400 nM and not below 51900 nM, respectively.
ENMLRSMPV: in assay [7] (setting [13]), the Kd was 0.213 nM.
Take EYISDAFSL: the Kd is not below 37600 nM in assay [1] (setting [17]); not below 91800 nM in assay [2] (setting [17]); not below 81100 nM in assay [3] (setting [17]); not below 77900 nM in assay [4] (setting [17]); not below 88200 nM in assay [5] (setting [17]); not below 64600 nM in assay [6] (setting [17]).
In the case of EYKLQQGTF, the equilibrium dissociation constant (Kd) was not below 78100 nM in [1] (setting [17]); 11300 nM in assay [2] (setting [17]); not below 78900 nM in assay [3] (setting [17]); not below 77900 nM in assay [4] (setting [17]); not below 31600 nM in assay [5] (setting [17]); not below 35100 nM in assay [6] (setting [17]).
EYQKTKLNDW: the results for the equilibrium dissociation constant (Kd) in assay [2] (setting [18]) and in assay [6] (setting [18]) were 10300 nM and 10800 nM, respectively.
Take FGDSEEPVTY: the Kd in [1] (setting [19]) is 834 nM; in assay [2] (setting [19]) it was not below 70300 nM; in assay [3] (setting [19]), 13100 nM; in [4] (setting [19]), not below 69700 nM; in [5] (setting [19]), 13000 nM; in [6] (setting [19]), 1490 nM.
Take FNAPALQEAY: the Kd was 284 nM in [1] (setting [17]); not below 70300 nM in [2] (setting [17]); 336 nM in assay [3] (setting [17]); 526 nM in [4] (setting [17]); 26.1 nM in assay [5] (setting [17]); not below 70000 nM in [6] (setting [17]).
For the sequence GWHDWQQVPF, the Kd in [2] (setting [18]) amounted to 118 nM; in assay [6] (setting [18]), 414 nM.
Take HCALLDCIMY: the Kd in assay [1] (setting [20]) is 232 nM; in [2] (setting [20]), not below 70300 nM; in assay [3] (setting [20]), 1420 nM; in [4] (setting [20]), not below 69700 nM; in assay [5] (setting [20]), 2180 nM; in [6] (setting [20]), not below 70000 nM.
Turning to HVQRIETWIL, in [7] (setting [21]), the Kd stood at 1730 nM.
Consider IARQYEQEM, for which the values for the Kd in [8] and in assay [9] were 15000 nM and 515 nM, respectively.
ILNRRRRTA: the Kd in assay [7] (setting [21]) was determined as 147 nM.
In the case of IMDLEKRHVL, in assay [7] (setting [21]), the Kd was 42.1 nM.
For the sequence INKRKKTSL, the Kd in assay [7] (setting [18]) turned out to be 18.3 nM.
As for IRFPRFTRI, the Kd in [7] (setting [13]) came to 1600 nM.
ITQKGIIFIL: the Kd in assay [7] (setting [22]) is 577 nM.
On to IYRILQRGLL, for which the Kd in [7] (setting [22]) stood at 2570 nM.
Turning to KWKSRLNAL, in assay [7] (setting [21]), the Kd stood at 65.6 nM.
With LFLAFVVFLL, the Kd in [1] (setting [17]) turned out to be 537 nM; in assay [2] (setting [17]), 11700 nM; in assay [3] (setting [17]), 2000 nM; in assay [4] (setting [17]) it was 251 nM; in [5] (setting [17]), 793 nM; in assay [6] (setting [17]) it was 846 nM.
LFQLIFFLTL: the equilibrium dissociation constant (Kd) in [2] (setting [23]) was not below 53900 nM; in assay [5] (setting [23]), 673 nM; in assay [6] (setting [23]), 9190 nM.
As for LIAIAVASGL, the dissociation constant Kd in [7] (setting [24]) stood at 11700 nM.
Take LKDGPERVIL: in assay [7] (setting [22]), the Kd stood at 2540 nM.
In the case of LLRKHTLKI, the Kd in [7] (setting [13]) amounted to 20.8 nM.
Turning to LNGRKRSTI, the Kd in assay [7] (source organism: Dengue virus 4 Dominica/814669/1981) is 135 nM.
For LNGRKRSTM, the Kd in [7] (setting [24]) came out at 100 nM.
With SAKTKISVE, the Kd in [7] (setting [13]) was determined as 238 nM.
Same read-out and setting: with SKRMRVDII the figure was 8230 nM; with SLEFIRRSL, 1230 nM.
As for SMAMRCVGI, the Kd in assay [7] (setting [22]) came to 5.95 nM.
With SRSTSLSVSL, the Kd in assay [7] (setting [21]) worked out at 558 nM.
Still for that read-out and setting: to VGRQEKGKSL belongs 3150 nM.
For the sequence VNKFKFGAA, the Kd in assay [7] (setting [13]) was determined as 158 nM.
Regarding WIMKIGIGVL, in assay [7] (source organism: Dengue virus 3 Singapore/8120/1995), the Kd turned out to be 287 nM.
On to WLSYKVASA, for which the Kd in assay [10] is 12.3 nM; in assay [7] (setting [24]), 7.42 nM.
Regarding YQPDTGNYIL, the Kd in assay [2] (setting [23]) came out at 6000 nM; in assay [5] (setting [23]), 5520 nM; in assay [6] (setting [23]), 1720 nM.
Take YSIPATLLVW: the Kd in [11] was found to be 59.7 nM; in assay [6] (setting [18]), 70.4 nM.
